Experiment [1] relates to wild-type MEFs. The experiment in a line: Apoptosis assay in wild-type MEFs deprived of serum. The class given is cell-based, mouse. On the procedure: Apoptosis assays. Wild-type MEFs infected with the indicated retroviruses for 36 hours were starved for serum for 24 hours. Viability was determined by trypan blue dye exclusion, and DNA fragmentation was monitored by a terminal deoxynuclectidyl transferase (FACS-TUNEL) assay and by measurement of subdiploid DNA content of propidium iodide-stained nuclei [Zindy et al., Genes Dev. 12:2424-2433 (1998)].
On the other hand, MEFs overexpressing c-Myc, E2F-1, or E1A are exquisitely sensitive to apoptosis. […] 12:2424-2433 (1998); De Stanchina et al., Genes Dev. 12:2434-2442 (1998)].

Another experiment concerns p19ARF. In words: Induction of endogenous p19ARF protein in retrovirus-infected MEFs. The note with it: early passage MEFs, retroviral infection. The class given is cell-based, mouse. Here is the method:
Virus production and infection. Human kidney 293T cells were transfected with a helper ecotropic retrovirus plasmid defective in psi-2 packaging sequences, together with pSRα vectors containing murine DMP1, human c-Myc, human E2F-1, or human Ets1 cDNAs [Zindy, et al., Genes Dev. 12:2424-2433 (1998); Inoue and Sherr, J. Biol. Chem. 273:29188-29194 (1998)]. Viruses were harvested every 6 hours 24-72 hours after transfection, filtered and stored at 4° C. until used for infection [Zindy, et al., Genes Dev. 12:2424-2433 (1998)]. In order to construct a retroviral vector containing DMP1 linked to a mutated tamoxifen-responsive element of the estrogen receptor (DMP1-ER™), a 3′ 0.3 kb EcoNI DNA fragment of murine DMP1 cDNA was amplified by PCR using
RNA and protein expression. Quantitative RT-PCRs employed specific primers for murine ARF exon 1β (30 cycles) and for β-actin (20 cycles) used as a control [Zindy et al., Oncogene 15:203-211 (1997)]. […]
(§1) Based on the above observations, it was determined as to whether introduction of DMP1 would induce synthesis of the endogenous ARF protein in normal diploid fibroblast strains. […] Although the blot was normalized for protein input, the levels of p19^ARF induced by DMP1 were calculated to be 2-fold higher than those induced by Myc, because fewer cells were productively infected with the DMP1 virus in this experiment (see FIG. 15A).

Experiment [2] has as its system wild-type MEFs. The experiment in a line: BrdU incorporation / cell cycle arrest in wild-type MEFs. The format is cell-based, mouse. The note with it: retroviral infection. On the procedure:
(§2) BrdU incorporation and immunofluorescence. Wild-type or ARF-null MEFs (4×10^4 cells) were seeded on gelatin-coated coverslips 16 hours before virus infection. Cells were infected three times with empty vector, or vectors expressing murine DMP1, human c-Myc, human E2F-1, or human Ets1. Cells were labeled 36 hours after virus infection with bromodeoxyuridine (BrdU, Sigma) for 14 hours in complete medium. For pulse labeling, MEFs were treated with 2 μM4-HT for 36 hours and labeled with BrdU for three hours at different intervals throughout the inductive phase. Cells were fixed in ice-cold methanol-acetone (1:1) for 10 min at −20° C. and then were stained with affinity-purified antibodies to DMP1 (AF) [Hirai and Sherr, Mol. Cell. […]
as §1
In general terms: Incorporation of labelled thymidine or its analogues reports DNA synthesis.

Experiment [3] concerns 281 bp ARF promoter fragment. The experiment in a line: Transactivation of ARF promoter-luciferase reporter in NIH-3T3 cells. The format is cell-based, mouse. The note with it: NIH-3T3, 281 bp ARF promoter fragment-luciferase. Here is the method:
Transactivation assays. NIH-3T3 cells were transfected with 4 μg of pGL2-ARFpro BamHI or its DMP1 binding site mutant, with or without increasing amount of pFLEX-DMP1, pEVRFO-Ets1, pCMV-Ets2, pRcRSV-Elfl, pdEB-Fli1, p(IEB-EWS-Fli1 or pCMV-E2F-1 (89-437), and 4 μg β-actin SEAP control vectors [Inoue and Sherr, Mol. Cell. Biol. 18: 1590-1600 (1998); Inoue et al., J. Biol. Chem. 273:29188-29194 (1998); Davis and Roussel, Gene 171:265-269 (1996); Baily et al., Mol. Cell. Biol. 14:3230-3241 (1994)]. Transfections and normalization of luciferase levels with internal control SEAP levels were performed as described [Inoue and Sherr, Mol. Cell. Biol. 18:1590-1600 (1998)].
Similarly, DMP1 deletion mutants defective in transactivation [Inoue and Sherr, Mol. Cell. […] Mutation of the DMP1 binding site within the ARF promoter [changing CCCGGATGC, (SEQ ID NO:33) to CCCGTCGAC, (SEQ ID NO:42)] also completely abolished transactivation by wild-type DMP1 (FIG. 14C, mutant reporter). Therefore, sequences within the −189 to −181 ARF promoter segment were the only ones responsible for DMP1-mediated transactivation. Although Ets1 could bind to a 23 base pair oligonucleotide containing the DMP1 consensus site (FIG. 14B), several Ets proteins were unable to induce significant reporter gene expression from the more complex 281 base pair ARF promoter (FIG. 14C). […]
On the technique in general: In a reporter assay the amount or activity of a reporter protein is the signal.

The next experiment relates to ARF-null MEFs. In words: BrdU incorporation / cell cycle arrest in ARF-null MEFs. The note with it: retroviral infection. The class given is cell-based, mouse. On the procedure:
as §2, §1

A further experiment has as its target T1, D-type cyclins (Mus musculus, UniProt P25322).
T1 construct: made in house; host or cells: in vitro transcription (Stratagene) and translation (rabbit reticulocyte system, Promega)
The experiment in a line: In vitro binding of [35S]methionine-labeled D-type cyclins to GST fusion proteins. The note with it: cyclin D1. Here is the method: A BglII fragment encoding amino acids 176-761 of DMP1 (FIG. 1) is subcloned into the BamHI site of the pGEX-3X plasmid (Pharmacia, Uppsala Sweden), and overnight cultures of transformed bacteria are diluted 10-fold with fresh medium, cultured for 2-4 more hours at 37° C., and induced with 1 mM isopropyl-β-D-thiogalactopyranoside (IPTG) for 1 hour. Induced bacteria are lysed by sonication in phosphate-buffered saline (PBS) containing 1% Triton X-100, and recombinant glutathione-S-transferase (GST)-DMP1 protein is purified by absorption and elution from glutathione-Sepharose beads as described (35). […] After 2 hours at 4° C., the beads are collected by centrifugation, washed 4 times with IP Kinase buffer, and the bound proteins are denatured and analyzed by electrophoresis on 11% polyacrylamide gels containing sodium dodecyl sulfate (SDS) (1).
Because DMP1 interacted with cyclin D2 in yeast, the ability of a glutathione S-transferase (GST)-DMP1 fusion protein to bind D-type cyclins in vitro is examined. […] Bound cyclins recovered on washed glutathione-Sepharose beads are analyzed by electrophoresis on denaturing gels. […] GST-DMP1 is less efficient than GST-RB in binding cyclins D2 and D3 (˜4-fold less binding), and under these conditions, an interaction with D1 is not detected (lanes 3, 7, 11). […]

T1 sequence (P25322 whole entry): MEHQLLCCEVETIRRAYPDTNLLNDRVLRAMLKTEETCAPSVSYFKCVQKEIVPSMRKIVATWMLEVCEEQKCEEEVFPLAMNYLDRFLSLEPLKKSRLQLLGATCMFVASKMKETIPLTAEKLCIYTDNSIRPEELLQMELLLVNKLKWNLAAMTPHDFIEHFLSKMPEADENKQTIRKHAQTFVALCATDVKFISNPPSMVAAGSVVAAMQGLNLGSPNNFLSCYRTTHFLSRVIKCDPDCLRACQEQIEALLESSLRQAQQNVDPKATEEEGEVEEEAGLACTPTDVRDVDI

B1: Myc: known rapid inducer of p19ARF protein expression used as positive control (protein, UniProt P01108 1-454, looked up)
Myc proto-oncogene protein: MDFLWALETPQTATTMPLNVNFTNRNYDLDYDSVQPYFICDEEENFYHQQQQSELQPPAPSEDIWKKFELLPTPPLSPSRRSGLCSPSYVAVATSFSPREDDDGGGGNFSTADQLEMMTELLGGDMVNQSFICDPDDETFIKNIIIQDCMWSGFSAAAKLVSEKLASYQAARKDSTSLSPARGHSVCSTSSLYLQDLTAAASECIDPSVVFPYPLNDSSSPKSCTSSDSTAFSPSSDSLLSSESSPRASPEPLVLHEETPPTTSSDSEEEQEDEEEIDVVSVEKRQTPAKRSESGSSPSRGHSKPPHSPLVLKRCHVSTHQHNYAAPPSTRKDYPAAKRAKLDSGRVLKQISNNRKCSSPRSSDTEENDKRRTHNVLERQRRNELKRSFFALRDQIPELENNEKAPKVVILKKATAYILSIQADEHKLTSEKDLLRKRREQLKHKLEQLRNSGA
With B1, the “apoptosis / cell death” value in the experiment with wild-type MEFs [1] is “induced cell death”. Moreover, in the experiment on p19ARF, the ARF protein synthesis entry is reported as “induced ARF protein synthesis”.

B2: Ets1: Ets family transcription factor (protein, UniProt P27577 1-440, looked up)
Protein C-ets-1: MKAAVDLKPTLTIIKTEKVDLELFPSPDMECADVPLLTPSSKEMMSQALKATFSGFTKEQQRLGIPKDPRQWTETHVRDWVMWAVNEFSLKGVDFQKFCMSGAALCALGKECFLELAPDFVGDILWEHLEILQKEDVKPYQVNGANPTYPESCYTSDYFISYGIEHAQCVPPSEFSEPSFITESYQTLHPISSEELLSLKYENDYPSVILQDPLQTDTLQTDYFAIKQEVLTPDNMCLGRASRGKLGGQDSFESVESYDSCDRLTQSWSSQSSFNSLQRVPSYDSFDYEDYPAALPNHKPKGTFKDYVRDRADLNKDKPVIPAAALAGYTGSGPIQLWQFLLELLTDKSCQSFISWTGDGWEFKLSDPDEVARRWGKRKNKPKMNYEKLSRGLRYYYDKNIIHKTAGKRYVYRFVCDLQSLLGYTPEELHAMLDVKPDAD
B2: the cell cycle arrest entry with wild-type MEFs [2] and in the experiment on ARF-null MEFs was “behaved indistinguishably from those infected with the control vector” in each case. Also, the “ARF promoter reporter gene expression” value in experiment [3] is “slightly inhibitory”.

B3: GST-DMP1: GST fused to residues 176-761 of DMP1, bacterially synthesized (protein)
chain: GIKDATEIIFEMSKDERKDFYRTIAWGLNRPLFAVYRRVLRMYDDRNHVGKYTPEEIEKLKELRIKHGNDWATIGAALGRSASSVKDRCRLMKDTCNTGKWTEEEEKRLAEVVHELTSTEPGDIVTQGVSWAAVAERVGTRSEKQCRSKWLNYLNWKQSGGTEWTKEDEINLILRIAELDVADENDINWDLLAEGWSSVRSPQWLRSKWWTIKRQIANHKDVSFPVLIKGLKQLHENQKNNPVLLENKSGSGVPNSNCNSSVQHVQIRVARLEDNTAISPSPMAALQIPVQITHVSSTDSPAASADSETITLNSGTLQTFEILPSFPLQPTGTPGTYLLQTSSSQGLPLTLTTNPTLTLAAAAPASPEQIIVHALSPEHLLNTSDNVTVQCHTPRVIIQTVATEDITSSLSQEELTVDSDLHSSDFPEPPDALEADTFPDEIPRPKMTIQPSFNNAHVSKFSDQNSTELMNSVMVRTEEEIADTDLKQEEPPSDLASAYVTEDLESPTIVHQVHQTIDDETILIVPSPHGFIQASDVIDTESVLPLTTLTDPIFQHHQEASNIIGSSLGSPVSEDSKDVEDLVNCH
modifications: left off: a dimerising Fc or GST
notes: GST fused to residues 176-761 of DMP1, bacterially synthesized
Take B3: in the experiment with D-type cyclins, the “interaction with D1” value was “not detected”.
